Results taken from article PMC12990809.

Tests used:
Test in all cases: pulldown
[1] = target: T1, LmjF.18.0190 (Leishmania major) (UniProt Q4QE23); conditions: 20 nM protein, 1.5 uM RNA pool; 20 mM HEPES pH 7.8, 70 mM KCl, 10 mM NaCl, 10% glycerol, 2 mM DTT, 0.1 ug/uL BSA; 30 min, 4 C
T1 sequence: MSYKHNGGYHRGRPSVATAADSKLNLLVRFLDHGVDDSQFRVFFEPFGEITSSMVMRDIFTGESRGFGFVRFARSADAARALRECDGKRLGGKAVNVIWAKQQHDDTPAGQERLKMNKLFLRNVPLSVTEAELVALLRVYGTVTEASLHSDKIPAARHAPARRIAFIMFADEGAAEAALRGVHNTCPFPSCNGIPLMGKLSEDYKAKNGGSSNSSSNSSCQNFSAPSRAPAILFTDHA

[2] = target: T2, LmjF.34.4560 (Leishmania major) (UniProt Q4Q285); conditions: 20 nM protein, 1.5 uM RNA pool; 20 mM HEPES pH 7.8, 70 mM KCl, 10 mM NaCl, 10% glycerol, 2 mM DTT, 0.1 ug/uL BSA; 30 min, 4 C
T2 sequence: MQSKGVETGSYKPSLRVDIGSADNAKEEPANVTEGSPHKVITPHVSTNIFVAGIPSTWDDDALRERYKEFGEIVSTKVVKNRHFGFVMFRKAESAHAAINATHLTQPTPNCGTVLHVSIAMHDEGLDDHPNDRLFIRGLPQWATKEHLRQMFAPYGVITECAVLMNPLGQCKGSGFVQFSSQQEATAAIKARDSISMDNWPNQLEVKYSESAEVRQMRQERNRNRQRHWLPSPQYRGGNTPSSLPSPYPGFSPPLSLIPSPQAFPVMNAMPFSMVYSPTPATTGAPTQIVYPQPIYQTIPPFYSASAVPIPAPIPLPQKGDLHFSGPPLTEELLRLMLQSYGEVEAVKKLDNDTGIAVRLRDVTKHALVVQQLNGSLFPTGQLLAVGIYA

[3] = target: T3, Hrb87F (Drosophila melanogaster) (UniProt P48810); conditions: 20 nM protein, 1.5 uM RNA pool; 20 mM HEPES pH 7.8, 70 mM KCl, 10 mM NaCl, 10% glycerol, 2 mM DTT, 0.1 ug/uL BSA; 30 min, 4 C (protocol of this paper; not …); cited from earlier work
T3 sequence: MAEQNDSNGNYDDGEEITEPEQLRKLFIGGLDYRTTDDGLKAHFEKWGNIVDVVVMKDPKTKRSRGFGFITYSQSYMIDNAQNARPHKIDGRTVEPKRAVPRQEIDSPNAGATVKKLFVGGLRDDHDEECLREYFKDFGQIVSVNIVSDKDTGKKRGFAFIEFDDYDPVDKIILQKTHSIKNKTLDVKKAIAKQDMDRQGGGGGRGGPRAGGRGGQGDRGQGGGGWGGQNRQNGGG

[4] = target: T4, LmjF.25.0500 (Leishmania major) (UniProt Q4QA45); conditions: 20 nM protein, 1.5 uM RNA pool; 20 mM HEPES pH 7.8, 70 mM KCl, 10 mM NaCl, 10% glycerol, 2 mM DTT, 0.1 ug/uL BSA; 30 min, 4 C
T4 sequence: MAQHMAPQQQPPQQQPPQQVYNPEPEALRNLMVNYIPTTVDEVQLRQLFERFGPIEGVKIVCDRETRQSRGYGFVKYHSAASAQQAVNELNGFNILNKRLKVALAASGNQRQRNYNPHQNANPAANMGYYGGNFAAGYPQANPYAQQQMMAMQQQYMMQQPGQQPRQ

[5] = target: T5, Tb11.01.3940 (Trypanosoma brucei) (UniProt Q382W9); conditions: 20 nM protein, 1.5 uM RNA pool; 20 mM HEPES pH 7.8, 70 mM KCl, 10 mM NaCl, 10% glycerol, 2 mM DTT, 0.1 ug/uL BSA; 30 min, 4 C
T5 sequence: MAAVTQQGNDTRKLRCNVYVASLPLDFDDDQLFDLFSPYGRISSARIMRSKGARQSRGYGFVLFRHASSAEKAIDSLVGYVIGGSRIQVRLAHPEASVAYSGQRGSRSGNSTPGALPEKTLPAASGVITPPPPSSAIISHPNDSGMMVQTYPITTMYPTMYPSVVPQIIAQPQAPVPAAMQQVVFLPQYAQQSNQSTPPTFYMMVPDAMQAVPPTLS

tardbpl (Danio rerio) = target: T6, tardbpl (Danio rerio) (UniProt A0A8M1PDP8); conditions: 20 nM protein, 1.5 uM RNA pool; 20 mM HEPES pH 7.8, 70 mM KCl, 10 mM NaCl, 10% glycerol, 2 mM DTT, 0.1 ug/uL BSA; 30 min, 4 C
T6 sequence: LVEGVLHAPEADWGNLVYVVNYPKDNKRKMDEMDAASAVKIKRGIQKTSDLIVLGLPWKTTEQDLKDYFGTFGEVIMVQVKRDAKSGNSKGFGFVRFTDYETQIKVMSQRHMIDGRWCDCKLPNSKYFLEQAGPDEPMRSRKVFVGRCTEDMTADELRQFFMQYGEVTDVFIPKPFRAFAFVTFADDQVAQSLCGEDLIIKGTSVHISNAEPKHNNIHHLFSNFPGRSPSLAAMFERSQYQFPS

[6] = target: T7, CG1316 G229S (Drosophila melanogaster) (UniProt Q7JRD2); conditions: 20 nM protein, 1.5 uM RNA pool; 20 mM HEPES pH 7.8, 70 mM KCl, 10 mM NaCl, 10% glycerol, 2 mM DTT, 0.1 ug/uL BSA; 30 min, 4 C
T7 sequence: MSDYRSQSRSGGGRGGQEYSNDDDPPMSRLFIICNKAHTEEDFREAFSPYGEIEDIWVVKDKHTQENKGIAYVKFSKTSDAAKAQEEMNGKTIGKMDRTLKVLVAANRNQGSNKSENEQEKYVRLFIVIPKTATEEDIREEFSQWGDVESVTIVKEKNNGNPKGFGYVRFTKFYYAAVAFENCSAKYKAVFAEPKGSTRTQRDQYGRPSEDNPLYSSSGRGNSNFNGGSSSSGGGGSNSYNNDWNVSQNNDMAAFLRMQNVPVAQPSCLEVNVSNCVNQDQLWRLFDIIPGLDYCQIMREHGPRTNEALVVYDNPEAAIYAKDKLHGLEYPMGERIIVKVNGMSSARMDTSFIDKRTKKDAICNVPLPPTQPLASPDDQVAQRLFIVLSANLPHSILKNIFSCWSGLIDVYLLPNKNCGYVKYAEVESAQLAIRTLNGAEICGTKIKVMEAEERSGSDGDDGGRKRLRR

[7] = target: T8, SCHCODRAFT_80278 (Schizophyllum commune) (UniProt A0ACF2ERL4); conditions: 20 nM protein, 1.5 uM RNA pool; 20 mM HEPES pH 7.8, 70 mM KCl, 10 mM NaCl, 10% glycerol, 2 mM DTT, 0.1 ug/uL BSA; 30 min, 4 C
T8 sequence: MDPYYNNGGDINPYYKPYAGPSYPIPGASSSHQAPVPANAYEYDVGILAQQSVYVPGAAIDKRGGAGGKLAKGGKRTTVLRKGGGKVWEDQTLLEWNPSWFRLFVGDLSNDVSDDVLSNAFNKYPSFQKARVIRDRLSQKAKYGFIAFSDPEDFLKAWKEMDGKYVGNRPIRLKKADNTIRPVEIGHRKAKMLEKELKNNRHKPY

[8] = target: T9, LmjF.25.0080 (Leishmania major) (UniProt Q4QA88); conditions: 20 nM protein, 1.5 uM RNA pool; 20 mM HEPES pH 7.8, 70 mM KCl, 10 mM NaCl, 10% glycerol, 2 mM DTT, 0.1 ug/uL BSA; 30 min, 4 C
T9 sequence: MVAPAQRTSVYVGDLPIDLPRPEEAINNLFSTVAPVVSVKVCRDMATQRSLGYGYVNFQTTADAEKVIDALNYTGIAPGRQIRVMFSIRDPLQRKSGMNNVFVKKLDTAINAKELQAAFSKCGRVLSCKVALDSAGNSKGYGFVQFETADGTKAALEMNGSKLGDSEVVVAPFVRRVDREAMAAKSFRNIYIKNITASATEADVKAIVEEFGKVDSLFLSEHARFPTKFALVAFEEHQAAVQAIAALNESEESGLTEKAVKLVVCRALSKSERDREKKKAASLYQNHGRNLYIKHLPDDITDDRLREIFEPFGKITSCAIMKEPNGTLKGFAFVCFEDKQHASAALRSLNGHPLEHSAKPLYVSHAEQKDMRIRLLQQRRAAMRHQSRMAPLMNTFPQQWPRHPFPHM

## CUCAUUU [RNAcompete motif RNCMPT00687]
[1]
  binding signal (z-score (mean of top ten 7-mers)): 20.6

## ACAACU [RNAcompete motif RNCMPT00691]
[2]
  binding signal (z-score (mean of top ten 7-mers)): 18.4

## GGUAGGG [RNAcompete motif RNCMPT00029]
[3]
  binding signal (z-score (mean of top ten 7-mers)): 13.4

## UAGUUU [RNAcompete motif RNCMPT00689]
[4]
  binding signal (z-score (mean of top ten 7-mers)): 11.6

## CUUAACC [RNAcompete motif RNCMPT00695]
[5]
  binding signal (z-score (mean of top ten 7-mers)): 14.8

## UGAAUG [RNAcompete motif RNCMPT00683]
Tardbpl (Danio rerio)
  binding signal (z-score (mean of top ten 7-mers)): 11.3

## GACNGAC [RNAcompete motif RNCMPT00698]
[6]
  binding signal (z-score (mean of top ten 7-mers)): 10.1

## AACUAC [RNAcompete motif RNCMPT00678]
[7]
  binding signal (z-score (mean of top ten 7-mers)): 13.6

## AGAAAA [RNAcompete motif RNCMPT00688]
[8]
  binding signal (z-score (mean of top ten 7-mers)): 9.16
